According to patent US20060105953:

Test system: UbG-DsRx

Substance: caspase-3
- red fluorescence (DsRed) in live transgenic zebrafish embryos: A control embryo (FIG. 1b) injected with a construct where the linker does not contain a cleavage site doesn't express any detectable red fluorescence (FIG. 1c)
